Reference: article PMC11173052, “The Development of Robust Antibodies to Sarcospan, a Dystrophin- and Integrin-Associated Protein, for Basic and Translational Research” (International Journal of Molecular Sciences, 2024)

Target: the molecule itself
Test: oligomer bands on immunoblot of immunoprecipitated protein (reducing SDS-PAGE); quadriceps lysates (50 mM Tris, 150 mM NaCl, 1% NP-40, pH 7.4) of hSSPN-TG, mSSPN-TG, WT and SSPN-null mice immunoprecipitated with anti-SSPN monoclonal antibodies on protein A/G PLUS-agarose; eluates resolved by SDS-PAGE under reducing conditions and blotted with E2 or 10B8

B1: human sarcospan (hSSPN) (natural protein, UniProt Q14714 1-243, looked up)
chain: MGKNKQPRGQQRQGGPPAADAAGPDDMEPKKGTGAPKECGEEEPRTCCGCRFPLLLALLQLALGIAVTVVGFLMASISSSLLVRDTPFWAGIIVCLVAYLGLFMLCVSYQVDERTCIQFSMKLLYFLLSALGLTVCVLAVAFAAHHYSQLTQFTCETTLDSCQCKLPSSEPLSRTFVYRDVTDCTSVTGTFKLFLLIQMILNLVCGLVCLLACFVMWKHRYQVFYVGVRICSLTASEGPQQKI
notes: sarcospan, human, GenBank AF016028; hSSPN-TG muscle also holds endogenous mouse SSPN; also called human SSPN; source: transgenic overexpression in mouse skeletal muscle (hSSPN-TG, Ln3), quadriceps muscle lysate
stoichiometry N: 2

B2: mouse sarcospan (mSSPN) (natural protein, UniProt Q62147 1-216, looked up)
chain: MGRKPSPRAQELPEEEARTCCGCRFPLLLALLQLALGIAVTVLGFLMASISPSLLVRDTPFWAGSIVCVVAYLGLFMLCVSYQVDERTCVQFSMKVFYFLLSALGLMVCMLAVAFAAHHYSLLAQFTCETSLDSCQCKLPSSEPLSRAFVYRDVTDCTSVTGTFKLFLIIQMVLNLVCGLVCLLACFVMWKHRYQVFYVGVGLRSLMASDGQLPKA
notes: sarcospan, mouse, GenBank U02487; 25-kDa protein with four transmembrane domains; seen as monomer and as a dimer band on reducing SDS-PAGE of immunoprecipitates; also called mouse SSPN; murine SSPN; source: endogenous (wild type) or transgenic overexpression (mSSPN-TG, Ln28), mouse quadriceps muscle lysate
stoichiometry N: 2
